Substrate in series [1]: C/C=C/C=C/C(=O)c1cc(C)c(O)c(C)c1O
In words: steady-state Michaelis-Menten kinetics. Type of series: biochemical, Penicillium rubens. Conditions: native substrate.

Substrate in series [2]: C/C=C/COC(=O)c1cc(C)c(O)c(C)c1O
In words: steady-state Michaelis-Menten kinetics. Type of series: biochemical, Penicillium rubens.

By Km is commonly meant the substrate concentration at which the rate is half of its maximum.

B1: SorbC (Penicillium rubens Wisconsin 54-1255) (protein)
chain: MTRSANSPFEVAIVGGGITGLALAVGLLKRNVSFTIYERAENFGELGVGITFTPNAQRAMEALDPCVLQSFTNVASAPSGGTINFVDGVREQGSEDPRTSTAALLFQLHVKGGYKACRRCDFVDQIVQHIPKDCVQYRKWLDSIETDHESGRAVLKFRDGEIAHADVVIGCDGIRSQVRASMFGTDELCPRAQYSHQLGYRGMVPLAQATAVLGPEKTSSAVLHTGPGAFVLTIPLAEVHAMHIEAFIMDKEEWPEVQTSSDSKRYVLPATRNEATKAFAEFGPTVRSAVSMFPEKLEKWAVFDMLEAPVPTFAKGRVCLAGDAAHASTPNQGGGAGFGIEDALVLAEVLAVLAEAPNVSGIVASEALAVYSEVRYERSQWLVRSSRRTGELCTWKDRDWGLAAEELSRDIISRSHQLWDHDTAGMVSDALAILGERVRGADTAF
For B1, the figures for the Km in series [1] and in series [2] were 38.6 ± 1.7 µM and 17.3 ± 0.7 µM, respectively.

The record behind these values is article PMC6598382.
